This is an account of results in paper PMC5896956, “Small molecule induced oligomerization, clustering and clathrin-independent endocytosis of the dopamine transporter” (eLife, 2018).

What is called stoichiometry N is a count of units in the complex or per binding partner.

Data set [1] concerns the molecule itself. Description: SDS-resistant oligomers on SDS-PAGE and western blot; PAE cells stably expressing the tagged transporter, vehicle (DMSO) or 20 µM AIM-100 for 2 hr at 37°C (also after cocaine, dopamine, amphetamine, modafinil, KRCA-0008, CHC siRNA, at 4°C or 20°C); lysis in TGH buffer, Laemmli buffer (2% SDS, 5% β-mercaptoethanol) 5 min at 95°C, 7.5% SDS-PAGE, blot with GFP antibody; oligomers (O) against monomers (M). In general terms: In western blotting, separated proteins are transferred to a membrane and probed.

Data set [2] deals with the molecule itself. Briefly: SDS-resistant oligomers on SDS-PAGE and western blot; striatal synaptosomes of adult HA-DAT mice in KRH/G, vehicle (DMSO) or 10–20 µM AIM-100 for 2 hr at 37°C; pelleted synaptosomes denatured in Laemmli buffer, SDS-PAGE, blot with DAT antibody.

B1: DAT fused to yellow fluorescent protein (YFP) (YFP-DAT) (natural protein, human, UniProt Q01959 1-620, looked up)
chain: MSKSKCSVGLMSSVVAPAKEPNAVGPKEVELILVKEQNGVQLTSSTLTNPRQSPVEAQDRETWGKKIDFLLSVIGFAVDLANVWRFPYLCYKNGGGAFLVPYLLFMVIAGMPLFYMELALGQFNREGAAGVWKICPILKGVGFTVILISLYVGFFYNVIIAWALHYLFSSFTTELPWIHCNNSWNSPNCSDAHPGDSSGDSSGLNDTFGTTPAAEYFERGVLHLHQSHGIDDLGPPRWQLTACLVLVIVLLYFSLWKGVKTSGKVVWITATMPYVVLTALLLRGVTLPGAIDGIRAYLSVDFYRLCEASVWIDAATQVCFSLGVGFGVLIAFSSYNKFTNNCYRDAIVTTSINSLTSFSSGFVVFSFLGYMAQKHSVPIGDVAKDGPGLIFIIYPEAIATLPLSSAWAVVFFIMLLTLGIDSAMGGMESVITGLIDEFQLLHRHRELFTLFIVLATFLLSLFCVTNGGIYVFTLLDHFAAGTSILFGVLIEAIGVAWFYGVGQFSDDIQQMTGQRPSLYWRLCWKLVSPCFLLFVVVVSIVTFRPPHYGAYIFPDWANALGWVIATSSMAMVPIYAAYKFCSLPGSFREKLAYAIAPEKDRELVDRGEVRQFTLRHWLKV
notes: Dopamine transporter (DAT), human; In the FRET experiment one copy carried CFP (CFP-DAT) and the other YFP (YFP-DAT); also called CFP-DAT (the copy with CFP in place of YFP, donor in the FRET experiment); source: PAE cells, stably expressed, in lysate; for FRET in living PAE cells stably co-expressing CFP-DAT and YFP-DAT
On to B1, for which the “stoichiometry N” value in data set [1] was roughly 3.

B2: HA-DAT (endogenous, HA-DAT knock-in mouse) (natural protein, UniProt Q61327 1-619, looked up)
chain: MSKSKCSVGPMSSVVAPAKEPNAVGPREVELILVKEQNGVQLTNSTLINPPQTPVEVQERETWSKKIDFLLSVIGFAVDLANVWRFPYLCYKNGGGAFLVPYLLFMVIAGMPLFYMELALGQFNREGAAGVWKICPVLKGVGFTVILISFYVGFFYNVIIAWALHYFFSSFTMDLPWIHCNNTWNSPNCSDAHSSNSSDGLGLNDTFGTTPAAEYFERGVLHLHQSRGIDDLGPPRWQLTACLVLVIVLLYFSLWKGVKTSGKVVWITATMPYVVLTALLLRGVTLPGAMDGIRAYLSVDFYRLCEASVWIDAATQVCFSLGVGFGVLIAFSSYNKFTNNCYRDAIITTSINSLTSFSSGFVVFSFLGYMAQKHNVPIRDVATDGPGLIFIIYPEAIATLPLSSAWAAVFFLMLLTLGIDSAMGGMESVITGLVDEFQLLHRHRELFTLGIVLATFLLSLFCVTNGGIYVFTLLDHFAAGTSILFGVLIEAIGVAWFYGVQQFSDDIKQMTGQRPNLYWRLCWKLVSPCFLLYVVVVSIVTFRPPHYGAYIFPDWANALGWIIATSSMAMVPIYATYKFCSLPGSFREKLAYAITPEKDRQLVDRGEVRQFTLRHWLLV
notes: it is reached by the HA11 antibody from outside the cell; Detected with the rat DAT antibody; oligomer species at 190 kDa; also called mouse DAT; source: endogenous (knock-in), striatal synaptosomes of adult HA-DAT mice
As for B2, the “stoichiometry N” value in data set [2] is roughly 3.
